Experimental data: PMC5735676, “Leishmania braziliensis SCD6 and RBP42 proteins, two factors with RNA binding capacity”

Experiments:
[1] = biological target: T1, rLbSCD6 (Leishmania braziliensis, UniProt A4HEG4 1-294); test: EMSA; 6 mM Mg2+, heparin; 12.5 nM RNA; EMSA: 10 mM HEPES pH 7.3, 20 mM KCl, 6 mM MgCl2, 1 mM DTT, 0.05% NP-40, 1 ug/ul heparin, 40 U RNaseOUT, room temperature 20 min, 6% native PAGE 0.5x TBE; pull-down at room temperature on His-tag Dynabeads, 1x pull-down buffer (composition not stated); details: protein: recombinant; tags: His tag (nickel column); label: 5' digoxigenin
T1 sequence: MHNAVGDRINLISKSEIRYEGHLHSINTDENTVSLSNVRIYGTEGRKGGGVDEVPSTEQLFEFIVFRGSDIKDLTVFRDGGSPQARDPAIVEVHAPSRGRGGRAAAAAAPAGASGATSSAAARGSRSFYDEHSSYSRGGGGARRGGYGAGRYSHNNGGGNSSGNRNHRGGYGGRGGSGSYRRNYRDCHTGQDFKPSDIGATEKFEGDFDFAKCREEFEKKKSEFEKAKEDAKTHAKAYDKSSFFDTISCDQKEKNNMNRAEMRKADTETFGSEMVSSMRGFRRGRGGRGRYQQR

[2] = biological target: T2, rLbRBP42 (Leishmania braziliensis, UniProt A4HIP3 1-338); test: EMSA; 6 mM Mg2+, heparin; 3 pM protein, 12.5 nM RNA; EMSA: 10 mM HEPES pH 7.3, 20 mM KCl, 6 mM MgCl2, 1 mM DTT, 0.05% NP-40, 1 ug/ul heparin, 40 U RNaseOUT, room temperature 20 min, 6% native PAGE 0.5x TBE; pull-down at room temperature on His-tag Dynabeads, 1x pull-down buffer (composition not stated); details: protein: recombinant; tags: His tag (nickel column); label: 5' digoxigenin
T2 sequence: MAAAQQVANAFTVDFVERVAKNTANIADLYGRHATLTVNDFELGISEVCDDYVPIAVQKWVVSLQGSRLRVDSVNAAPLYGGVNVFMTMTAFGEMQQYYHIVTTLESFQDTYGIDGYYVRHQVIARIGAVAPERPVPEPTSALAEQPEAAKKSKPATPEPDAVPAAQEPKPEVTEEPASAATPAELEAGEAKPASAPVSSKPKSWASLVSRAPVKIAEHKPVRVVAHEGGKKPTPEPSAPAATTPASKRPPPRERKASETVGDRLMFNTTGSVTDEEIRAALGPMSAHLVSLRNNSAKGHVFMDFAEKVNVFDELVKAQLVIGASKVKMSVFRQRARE

[3] = biological target: T1, rLbSCD6; test: competition; vs 12.5 nM labeled N2; completely competed at 1-fold cold RNA; EMSA: 10 mM HEPES pH 7.3, 20 mM KCl, 6 mM MgCl2, 1 mM DTT, 0.05% NP-40, 1 ug/ul heparin, 40 U RNaseOUT, room temperature 20 min, 6% native PAGE 0.5x TBE; pull-down at room temperature on His-tag Dynabeads, 1x pull-down buffer (composition not stated); details: protein: recombinant; tags: His tag (nickel column)
[4] = biological target: T2, rLbRBP42; test: competition; vs 12.5 nM labeled N2; decrease of complex only at 4-fold cold RNA; EMSA: 10 mM HEPES pH 7.3, 20 mM KCl, 6 mM MgCl2, 1 mM DTT, 0.05% NP-40, 1 ug/ul heparin, 40 U RNaseOUT, room temperature 20 min, 6% native PAGE 0.5x TBE; pull-down at room temperature on His-tag Dynabeads, 1x pull-down buffer (composition not stated); details: protein: recombinant; tags: His tag (nickel column)
[5] = biological target: T1, rLbSCD6; test: competition; vs 12.5 nM labeled N2; up to 8-fold (100 nM) cold RNA; EMSA: 10 mM HEPES pH 7.3, 20 mM KCl, 6 mM MgCl2, 1 mM DTT, 0.05% NP-40, 1 ug/ul heparin, 40 U RNaseOUT, room temperature 20 min, 6% native PAGE 0.5x TBE; pull-down at room temperature on His-tag Dynabeads, 1x pull-down buffer (composition not stated); details: protein: recombinant; tags: His tag (nickel column)
[6] = biological target: T2, rLbRBP42; test: as above; details: protein: recombinant; tags: His tag (nickel column)

B1: 3' UTR-II.1 motif (ssRNA)
RNA: AUGUCUUUUAUUUUUUUGUGUGUGUUUUAUAUUUUUCUCCUUUCGUACUAA
- binding result [1]: binds
- binding result [2]: binds

B2: 3' UTR-II.1 motif, cold (ssRNA)
RNA: AUGUCUUUUAUUUUUUUGUGUGUGUUUUAUAUUUUUCUCCUUUCGUACUAA
- binding result [3]: binds
- binding result [4]: binds

B3: 3' UTR-II.1 antisense (ssRNA)
RNA: UACAGAAAAUAAAAAAACACACACAAAAUAUAAAAAGAGGAAAGCAUGAUU
- binding result [5]: no binding
- binding result [6]: no binding
